This note sets out measurements from the DeepSol protein solubility set.

This data set can be described thus: soluble on expression in E. coli; label from the status in PepcDB or PDB records.
As for “MSDEKSTTPTAQLDAPADGNMNDLTSLIQGVLQQTQDRFQHMSDQIIRRIDDMTTRIDDLEKNINDLLQSNQVEHPPSAQ”, the “soluble on expression in E. coli” value is “not soluble”.

As to “MSDESANPSCISHLSIGTNDFPRARAFYDAVMAALGCKVILEYPGAVAYGKLYPEFWVQAPIDGRPASVGNGSHVGFFADSKAQVDAFHAAALAAGARDEGAPGPRPLYGEPYYGCFIRDLDGHKVEASYWDMSQGFDAHDHAH”, the “soluble on expression in E. coli” value is reported as “not soluble”.

As for “MSDFLKLVGENIRFLRKKRGLTQEELAEQINLQQAYIGGVERGERNISMLTLQKIAVGLEVSPDEVLNFSNVNLIDNPQREESLSIITSLLHQKNVNELQFILKFLYNFSEFVESNSNK”, the “soluble on expression in E. coli” value is “not soluble”.

With “MSDHFVSERQALILAQLRQSGRVLAQDLAQNFGVSEDTVRRDLREMAARGECLRVYGGALLSDSTTVPLKTRITEDADRKATLARAVVPLIEPGMVVFIDAGSTNLAIARAIPAGLNLTVVTNTPAIAADLTGRADIDLVLIGGKVDPAVGAAIDAMALRQLELMRPDLCVLGVCGVAAETGLSADVFEDAVFKRLACSASQRVIAAITTEKLGHKAAFHVHDFSPPLCLVLERDADRALVESLSAQGVDVYCGEDDAAPFSHGQVLEHHHHHH”, the “soluble on expression in E. coli” value is listed as “soluble”.

In the case of “MSDHQDGMKLEDIERQFLDVAQREGGLEAIQPTTGPLENEENLKSSTGGGGGEDDNDRKKRKRSRSRDRDTRRRSRSRDRGERRGGGGGGDRDRSRSRERRRGGGGRDEPRRRGGDDEARSRREPEPQKPREPKKYRFWDVPPTGFETTTPMEYKNMQAAGQVPRGSVQSAVPVVGPSVTCQSRRLYVGNIPFGCNEEAMLDFFNQQMHLCGLAQAPGNPILLCQINLDKNFAFIEFRSIDETTAGMAFDGINFMGQQLKVRRPRDYQPSQNTFDMNSRMPVSTIVVDSANKIFIGGLPNYLTEDQVKELLCSFGPLKAFSLNVDSQGNSKGYAFAEYLDPTLTDQAIAGLNGMQLGDKQLVVQLACANQQRHNTNLPNSASAIAGIDLSQGAGRATEILCLMNMVTEDELKADDEYEEILEDVRDECSKYGIVRSLEIPRPYEDHPVPGVGKVFVEFASTSDCQRAQAALTGRKFANRTVVTSYYDVDKYHNRQF”, the “soluble on expression in E. coli” value is “soluble”.

As to “MSDLYRNKKILAPMVRAGRTPLRLLCLKYGADLCYTEEIVDKKLIEATRVVNEALGTIDYRNGDDIILRLAPEEKGRCILQIGTNSGEKAAKIAQIVGDDVAGIDVNMGCPKPFSIHCGMGAALLTQTEKIVDILTSLKSAAKVPVTCKIRVLDDPEDTLKLVQEIEKCRVSALGVHGRRRDERQPDKCRIDEIRDVAQAVQSIPVISNGLSDEIEQYSDFEKYQLLTETSSTMIARKALSTPSIFRREGCLDKYEDIRNFLELACQYDESYTMTKYVVQRILGADQEYDPRGKATVAAGSVLQICKAFGMEDVYDKWRDERKKKQSKKRARVDDDGVYNIEVSFPLKRLKNSVGFSPTPKMVLHDYCVETKIPKATYEVVKRDDKRFVATACIGDKKYRSGIGQPNLRMAEQVAALAALHGMNIRNLLVGNWEEE”, the “soluble on expression in E. coli” value is given as “not soluble”.

“MSDMSEQSVEIASSQLGTKDFWDQRYELELKNFKQHGDEGEVWFGTSSETRIVKYLIDSKTGKDAKILDLGCGNGSVLRKLRSKGFQSLKGVDYCQKAVDLSAAASKAEREEEEDEELVDIEFEQLDITTPPADFFSSKFDVILDKGTWDAMSLSDEREARLKAYLGFLDNGLSAGGRFVIFSCNFTFDEMCSQFGGGGGSTSLEIVCEVPASHSFSFGGKQGVTSTGAVFRKKTL”: the “soluble on expression in E. coli” value is listed as “not soluble”.

“MSDVAETLDPLRLPLQGERLIEASAGTGKTFTIAALYLRLLLGLGGSAAFPRPLTVEELLVVTFTEAATAELRGRIRSNIHELRIACLRETTDNPLYERLLEEIDDKAQAAQWLLLAERQMDEAAVFTIHGFCQRMLNLNAFESGMLFEQQLIEDESLLRYQACADFWRRHCYPLPREIAQVVFETWKGPQALLRDINRYLQGEAPVIKAPPPDDETLASRHAQIVARIDTVKQQWRDAVGELDALIESSGIDRRKFNRSNQAKWIDKISAWAEEETNSYQLPESLEKFSQRFLEDRTKAGGETPRHPLFEAIDQLLAEPLSIRDLVITRALAEIRETVAREKRRRGELGFDDMLSRLDSALRSESGEVLAAAIRTRFPVAMIDEFQDTDPQQYRIFRRIWHHQPETALLLIGDPKQAIYAFRGADIFTYMKARSEVHAHYTLDTNWRSAPGMVNSVNKLFSQTDDAFMFREIPFIPVKSAGKNQALRFVFKGETQPAMKMWLMEGESCGVGDYQSTMAQVCAAQIRDWLQAGQRGEALLMNGDDARPVRASDISVLVRSRQEAAQVRDALTLLEIPSVYLSNRDSVFETLEAQEMLWLLQAVMTPERENTLRSALATSMMGLNALDIETLNNDEHAWDVVVEEFDGYRQIWRKRGVMPMLRALMSARNIAENLLATAGGERRLTDILHISELLQEAGTQLESEHALVRWLSQHILEPDSNASSQQMRLESDKHLVQIVTIHKSKGLEYPLVWLPFITNFRVQEQAFYHDRHSFEAVLDLNAAPESVDLAEAERLAEDLRLLYVALTRSVWHCSLGVAPLVRRRGDKKGDTDVHQSALGRLLQKGEPQDAAGLRTCIEALCDDDIAWQTAQTGDNQPWQVNDVSTAELNAKTLQRLPGDNWRVTSYSGLQQRGHGIAQDLMPRLDVDAAGVASVVEEPTLTPHQFPRGASPGTFLHSLFEDLDFTQPVDPNWVREKLELGGFESQWEPVLTEWITAVLQAPLNETGVSLSQLSARNKQVEMEFYLPISEPLIASQLDTLIRQFDPLSAGCPPLEFMQVRGMLKGFIDLVFRHEGRYYLLDYKSNWLGEDSSAYTQQAMAAAMQAHRYDLQYQLYTLALHRYLRHRIADYDYEHHFGGVIYLFLRGVDKEHPQQGIYTTRPNAGLIALMDEMFAGMTLEEA”: the “soluble on expression in E. coli” value is reported as “soluble”.

For “MSDVSTSVQSKFARLAKKKENITYMKREQLTETDKDIAPVLDLKCKDVSAIMNKFKVLMEIQDLMFEEMRETLKNDLKAVLGGKATIPEVKNSENSSSRTEFQQIINLALQKTGMVGKIEGENSKIGDDNENLTFKLEVNELSGKLDNTNEYNSNDGKKLPQGESRSYEVMGSMEETLCNIDDRDGNRNVHLEFTERESRKDGEDEFVKEMREERKFQKLKNKEEVLKASREEKVLMDEGAVLTLAADLSSATLDISKQWSNVFNILRENDFEPKFLCEVKLAFKCDGEIKTFSDLQSLRKFASQKSSMKELLKDVLPQKEEINQGGRNYGIQEKRDKTLIDSKHRAGEITSDGLSFLFLKEVKVAKPEEMKNLETQEEEFSELEELDEEASGMEDDEDTSGLEEEEEEPSGLEEEEEEEASGLEEDEASGLEEEEEQTSEQDSTFQGHTLVDAKHEVEITSDGMETTFIDSVEDSESEEEEEGKSSETGKVKTTSLTEKKASRRQKEIPFSYLVGDSGKKKLVKHQVVHKTQEEEETAVPTSQGTGTPCLTLCLASPSKSLEMSHDEHKKHSHTNLSISTGVTKLKKTEEKKHRTLHTEELTSKEADLTEETEENLRSSVINSIREIKEEIGNLKSSHSGVLEIENSVDDLSSRMDILEERIDSLEDQIEEFSKDTMQMTKQIISKERQRDIEERSRSCNIRLIGIPEKESYENRAEDIIKEIIDENFAELKKGSSLEIVSACRVPSKIDEKRLTPRHILVKFWNSSDKEKIIRASRERREITYQGTRIRLTADLSLDTLDARSKWSNVFKVLLEKGFNPRILYPAKMAFDFRGKTKVFLSIEEFRDYVLHMPTLRELLGNNIP”, the “soluble on expression in E. coli” value was “soluble”.

For the sequence “MSEALETGDPSPPPPIVSENGKTYYYLNSQESQAPNTPSPQEVPPKKMTNLFESGPLVYEDVAADIEAVTERASRRHYENKMVVKNSREMFDNVNILPDGRYYCCLCNRPYKTHATLTAHLRGYHLRNESSCDEPGCNFLSFTDQEKKRHRRTHDKKKKERNSQESMVIHEKIQKAVRRLDYPGEDELRDHLNGSTEVQGTIRTMTKKGKIRYACLKCPHSVFNAYHAARHVEMHNDFPKNCFYCGEIRKGTVDLQVHYMRVHKHEGIRTFKCSVCHLRFTTTILFRDHVECENGCQNPEIRQDIYYGELPEGTIVDDLTQDRLQNFRKRQEIWKTMGQMVEEHRTDVHEEIVGESSVQAGDTTVFDGSRAFIQTPFGLKTALEVKNTSRFCPRSGKRTSDDDLMITNKKRERLEMAPNLHFHQDIIHRLPTSTTTQRQNNAFQNEYLRPPVSYGYDPLIGRYPDFQLMSQSSLPSSSASSSSYDPFATAVYQDSDRNPMQPNDQHICDMNNVGAYETANFGLDNSSDLVVNEATIASNLMVNEVEDEVFEELNKLDFVMPADDGNDNDDDLEEVFNFGNVA”, the “soluble on expression in E. coli” value was “not soluble”.

Take “MSEDILPITISLAGEKDTIRLGEDLALALKPGDCLTLIGDLGAGKSTLARAFIRAMADEPDLEVPSPTFTIIQTYTTRIPVAHLDLYRLSDVSELDELGIDEMLEDGICLIEWPDIAAEVLPPAQTITLQLTHSGEGRVAVIEAPAQQKARLDRVFAIREFLAKNGRGDATRRFLSGDASTRAYETISTDGPDLILMDWRRPMRGAIVADGKTYAEIVHLAQDARSFVAIGDYLRNSGFRAPEILAADIDQGILLLEDLGREGVLAADGTPIEERYLQSVACLATLHQTPRPALLPMRDGSTYDIPSFDRQAMKIEVSLLVEWYLPHKRGKALTDGEKQDYYAIWDGLIDALAGCETGLLLRDFHSPNILWQAQNSGIGQVGLIDFQDAMIGPTAYDLASIVQDARVTIPPELQTRLMSHYLNSRKATPAFDEAAFLKAFAIMSAQRNCKLAGIWVRLLERDKKPGYMKHMPRTFRYLADALSHPELAPLREWCVRMGMDFNDLEHHHHHH”: the “soluble on expression in E. coli” value was “soluble”.

With “MSEELEYLKVLLYASQVEAQKLRKQKEEKDALLKTFQVKLEVEALGNLPAQRNLSEDISKREIQSLKKQVTVLKEEIGLEGSKLAIANAVQEQLKTDLADEKEKCRFTREVTKLYQMNIQLDQPSRDQVADYLQFEIRTVKEVLRQKEEELEKLMAENKYNYFENCAEKCRIQEETSAARREADLLRDEMKTLVKNMNAKSEELLGQLRDSTEKCEEMEIDCNIQLLELQKRHELLNYYASLG”, the “soluble on expression in E. coli” value is recorded as “not soluble”.

As for “MSEFDELKYLTGFGNEHATSDPRVPDALPVGQNSPQKCSHGLYAEQLSGTAFTAPRSQNQRSWLYRIRPSVIHRPFEAMKENDQHWTNNFSSIPPNPNQYRWNPFPLPTKEGVTFVDNLYTVCGGGDVISRTGLAIHQFSCNASMEHTAMYNSDGDFLIVPQQGALEITTEFGRLLVNPQEIAVIPQGIRFSVAVRGPSRGYILEVYGTHFQLPDLGPIGANGLANPRDFEAPVAWFEDLDVEFTIINKYQGSWFQAKQGHSPFDVVGWHGNYVPYKYDLKKFMVINTVSFDHCDPSIFTVLTAPSVKHGTAIADFVIFPPRWGCADNTFRPPYYHRNCMSEYMGLITGCYEAKEGGFKPGGGSLHSMMTPHGPDFNCFEMASNADLKPQRVAEGTMSFMFESSLNMAITNWAVYQNVDKDYYKDWQPLKKHFTMPK”, the “soluble on expression in E. coli” value is recorded as “not soluble”.

Regarding “MSEFHSEISTLSPAPLWQFFDKICSIPHPSKHEEALAQYIINWATEQGFDVRRDPTGNVFIKKPATPGMENKKGVVLQAHIDMVPQKNEDTDHDFTKDPIQPYIDGEWVTAKGTTLGADNGIGMASCLAVLASKDIKHGPIEVLLTIDEEAGMTGAFGLEAGWLEGDILLNTDSEQEGEVYMGCAGGIDGAMTFDIKRDAIPTGFVTRQLTLKGLKGGHSGCDIHTGRGNANKLLGRFLAGHAQELDLRLVEFRGGSLRNAIPREAFVTVAVPAENQEKLAELFNYYTELLKAELGKVETGIVTFNEEIVTESQAFTAADQQRFIAALNACPNGVMRMSDEIEGVVETSLNVGVITTEENKVTVLCLIRSLIDSGRSQVESMLRSVAELAGAQVEFSGAYPGWKPDADSEIMAIFRDMYEGIYGHKPNIMVIHAGLECGLFKEPYPNMDMVSFGPTIKFPHSPDEKVKIDTVQLFWDQMVALLEAIPEKALEHHHHHH”, the “soluble on expression in E. coli” value was “soluble”.

“MSEIHAGGCHCGRLRYQFDAPLKDIAHCHCSICWRTSGATVVTWISVPLASFKWLTGSPAAYDSAATCVRYFCGNCGAHMALFTRNSPNEMDVTIATLDQPELAVPSRHIWIENRLPWLHLDEDLPGDEGEP”: the “soluble on expression in E. coli” value is reported as “not soluble”.
